Experimental data reported in patent US9029340.

Molecular target: prostate-specific membrane antigen (PSMA) (human) (UniProt Q04609)
Assay: flow cytometry; J591 (1:5000) plus Alexa488 secondary on PC3-PIP cells, PSMA-negative PC3-Flu cells as reference

Sequence of UniProt Q04609 (Q04609 whole entry): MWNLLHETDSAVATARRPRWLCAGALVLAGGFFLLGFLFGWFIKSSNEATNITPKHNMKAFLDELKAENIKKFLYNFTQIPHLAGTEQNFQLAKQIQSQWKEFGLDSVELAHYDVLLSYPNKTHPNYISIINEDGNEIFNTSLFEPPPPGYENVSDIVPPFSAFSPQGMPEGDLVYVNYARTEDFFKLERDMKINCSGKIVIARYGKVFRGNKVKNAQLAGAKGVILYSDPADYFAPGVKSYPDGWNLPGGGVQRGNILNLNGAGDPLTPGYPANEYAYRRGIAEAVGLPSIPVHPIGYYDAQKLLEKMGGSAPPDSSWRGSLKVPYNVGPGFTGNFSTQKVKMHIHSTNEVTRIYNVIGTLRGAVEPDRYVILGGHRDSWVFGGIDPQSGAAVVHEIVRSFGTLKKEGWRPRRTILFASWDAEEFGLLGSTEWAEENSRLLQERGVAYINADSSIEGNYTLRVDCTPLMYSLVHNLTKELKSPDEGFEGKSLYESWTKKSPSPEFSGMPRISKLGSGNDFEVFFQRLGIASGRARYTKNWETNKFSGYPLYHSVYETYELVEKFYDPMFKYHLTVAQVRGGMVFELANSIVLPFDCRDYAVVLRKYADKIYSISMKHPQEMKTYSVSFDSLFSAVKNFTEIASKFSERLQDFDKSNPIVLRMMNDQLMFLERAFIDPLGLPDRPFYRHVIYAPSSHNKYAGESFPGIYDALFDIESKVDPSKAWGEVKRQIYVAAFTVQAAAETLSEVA

**Q.** For anti-PSMA (J591) antibody, which percent of cells stained positive is on record?
**A.** 48.2%
